Assay results reported in article PMC4338043.
Like-named read-outs stand apart in the source and are kept apart here.

How the values were obtained:
Experiment in all cases: AUC
[1] = molecular target: Klebsiella pneumoniae inosine-5'-monophosphate dehydrogenase (Klebsiella pneumoniae strain 52145)
[2] = molecular target: Klebsiella pneumoniae inosine-5'-monophosphate dehydrogenase (Klebsiella pneumoniae strain 52145); remark: listed apart in the source
[3] = molecular target: Bacillus anthracis inosine-5'-monophosphate dehydrogenase (Bacillus thuringiensis serovar monterrey BGSC 4AJ1 (sequence 100% identical to B. anthracis IMPDH))
[4] = molecular target: Bacillus anthracis inosine-5'-monophosphate dehydrogenase (Bacillus thuringiensis serovar monterrey BGSC 4AJ1 (sequence 100% identical to B. anthracis IMPDH)); remark: listed apart in the source

Row | stoichiometry N [1] | stoichiometry N [2] | Substance | stoichiometry N [3] | stoichiometry N [4]
1 | 4 | 8 | Klebsiella pneumoniae inosine-5'-monophosphate dehydrogenase (enzyme) | – | –
2 | – | – | Bacillus anthracis inosine-5'-monophosphate dehydrogenase (from UniProt A0A0K0Q667 1-487) (enzyme) | 4 | 8
